{"source": "the DeepSol protein solubility set"}
{"experiment": "soluble on expression in E. coli; label from the status in PepcDB or PDB records"}
{"sequence": "MGSDKIHHHHHHMLLFQDLRKDIYEIVSKRFRISENDVYLDDTGHSDITIRVFRILKSPDGGENAVMEIVRSISEKDYVEKALSEGGYINVWIKRTYMLREVLESIEKSGTYPDVFQEAERVSVEHTSANPTGPLHIGRARNSIIGDSIYRILSRYGYRTVRQYFVNDSGKQMISLYTAYIKYGGPITIENLLENYQKIYREMEKDQSIEKEIEKNIERYENADPEVFGTLRKIAGVMLDGIASTLKRIGIEFDEFDWESDLLLNGSVRKAIDMLETKEEDSARYIEISGKKVFLTRKDGTTLYFARDIAYHLFKAENSEWIIDVLGEDHKDHAKSLNHVLKEMLKLENRVSFMYYSFITLETGKMSTRRGNIVTLQDLVDRTYDEALKIVNEKRPDLSEEERKKIAEVIASSAVRYSIIRVSAPKPITFRWEEALNFESNSAPFIMYSHARAASILDKAPEPEQSYGMDMPKEEADLVKAMYVYPYYLKDAAQDLKPDLIAAYLISLVQKFNDFYGACRVIGTDPLTYARRIRIVKAYKQILSDAGDLIGIKMLDQM", "soluble on expression in E. coli": "not soluble"}
{"sequence": "MQNEKLDHESVTQAMQPKDTPELRALYKSFEEESIIPLWTQLGDLMPIHPKSKAVPHVWKWSTLLRLARKSGELVPVGRGGERRALGLANPGLGGNAYISPTMWAGIQYLGPRETAPEHRHSQNAFRFVVEGEGVWTVVNGDPVRMSRGDLLLTPGWCFHGHMNDTDQPMAWIDGLDIPFSQQMDVGFFEFGSDRVTDYATPNFSRGERLWCHPGLRPLSGLQNTVASPIGAYRWEFTDRALTEQLLLEDEGQPATVAPGHAAIRYVNPTTGGDVMPTLRCEFHRLRAGTETATRNEVGSTVFQVFEGAGAVVMNGETTKLEKGDMFVVPSWVPWSLQAETQFDLFRFSDAPIMEALSFMRTKIEGQK", "soluble on expression in E. coli": "soluble"}
{"sequence": "MKYDILIAGVGGQGVVLASRILALSAMKAGFRVSTAETIGMSQREGSVSSHVRIGDEISGSLIPEGKADLLIGLEPAETIRNLPFLKEGGKIIVNSHAIPPASKPPGSPEYNPGALLSYLKTGFPDFFCLDFTRLAEEAGTYRAANVAMIGAAAGMGILPFSKEIVLALMEAEIPEKHRAVNRAAFEEAVKKIK", "soluble on expression in E. coli": "not soluble"}
{"sequence": "MGSDKIHHHHHHMIRIGIDVGGTNTDAVVMDGTQVVAGVKSATTADVMSGVVNALKDVLAASRMAASAVDVVMIGTTHFTNAVVQRRDLAPTAAVRLGLPATASLPPMVDWPEDLKTAIGNHAWLAHGGNEFDGRVISPLNEEELLGIAAEIKVRGINSIAITSVLSPVSNEFEKRAAEIFAKALPGAHITLSSDIGRIGLLERENAAIMNACLRDLSAHVIEAFRKAIAETGIRGRFFLTQNDGTLMDAAFAEKFPVLTFASGPTNSMRGAAFLSGVDDAIVVDIGGTTSDVGSLQNGFPRQATVAVEVGGVRTNFRMPDVFSIGLGGGSLVVDGEHGVKVGPTSVGYRINTEALIFGGETLTTTDITVAAGNAELGDKARVAQLPKDLLDRTQAKILSMLEDCVERSRLSPDPLPVIVVGGGSILVNGPIGGLEVIKPNYFGVANAVGAAIAQVSGEIDRVYALAEIGRDQALDDAKARAIDAAVAAGASRDSVEIVDVEDVPLAYLPGNATRVRVKAVGELHVA", "soluble on expression in E. coli": "not soluble"}
{"sequence": "DRLTEEYGMHVYGIEFDEDRIIELRDRGYRIVAGDVTDPELWRRIELLDIPQLFAMSLPRYTDSDKVLARIHHDYPGATVATITQTRGREQALLTAGADVAVYLYEGVGDELADQAVAHLRQG", "soluble on expression in E. coli": "not soluble"}
{"sequence": "MSHAVARLRAERLARSNKPFIARGSRAERCPDCRVIATHCLCAWKPRVQADAGVCLLMHDTEPLKPTNTGWLIADLIEDTWAFGWLRTAVDERLLALLDDPRWQPYIVFPGEFVAQERVVSEVVREPGKRPLFILLDATWTEARKMFRKSPYLDRFPVLSLQAEQMSRYRLRRSKRDDHFCTAEVAAMCLDLAGDGQASQALDAYLDVFSLHYLSGKRRLPLDEQDDTHQRLHTFLLEHHHHHH", "soluble on expression in E. coli": "soluble"}
{"sequence": "MGSDKIHHHHHHMNTYIKILLGTCCSFSILSCSNNLDETVYSKVTEQTYNYTVDDFTPSIASVYSYLRSQSDHWGYFCAQEVSADAIVMPPNASGWDDGGAYRRMHYQTWNSEQDHVKNIWSWFYQGALLCNKIIEQIKTGVIPTPSDTEKTQGLAELRAMRAYYYWQICDNFGDAPLVTTTAMDLPAKNTRREIFDFVENELIEVIPNLSEEVGGNYYGRMTKWAAKALLANLYLNAQVYINEARWNDCITQCDDIINSGKFTLAENYKDLFRALGVESCKEIIFTIPYDENFATGNSIFMFSWHGELKKKYNTIDTPWGCGSAMGVTQFIDTYNEKDSRLADTWLMGQQLAADGTPLYGTYDKMGEPLIYTKDIPSGNYTSELEGYRMNKFEVAENSYSSSNTDIPVFRYAEIMMMKAECLLRTGKSGAGTLVTQVRQRAFKDNPELATVTDSQLAGNTCYQYGYVEDYKIVDRGNTDPIQFGRMYDELGWEFAWEMHRRRDAIRFGIYTTKSWLSHKPEGDYRSVFPIPETVLTSNPNLEQNPNYL", "soluble on expression in E. coli": "not soluble"}
{"sequence": "MGSDKIHHHHHHMETREQAKFFHLDEFSGLSLLQASYHRQRFARHVHETFCIGVIEEGVQRFYRTGGEHVAPKGDIILVNADEIHTGSPGVETGWAYRAIYPHPDLMLLLSRDLINANGTVPWFPEAVVHDPGLAEQFRLVFNLLTRDGDRLLKESLLLSSIASLVMRHGRTPAFARELPSVGQPLRIIKDLIASCPEEDYSLTQLAEMAHLSPWHFLRQFKKQVGLPPHAWLIQARLKRARQLLRRGLPIPVVAARCRFSDQSHFNRHFKSSFGITPGEFIRTLPSLSA", "soluble on expression in E. coli": "not soluble"}
{"sequence": "MSVDKSPVYEVKAVPVEKVLANDYNPNVVAPPEMKLLELSIWEDGFTMPCVCYYNKEEDNYILVDGYHRYTVLKTSKRIYKRENGLLPIVVIDKDLSNRMSSTIRHNRARGMHNIELMCNIVAELDRAGMSDQWIMKNIGMDRDELLRLKQISGLADLFANREFSIPDEVAPTETERKTL", "soluble on expression in E. coli": "not soluble"}
{"sequence": "MGSDKIHHHHHHMVIKNIDAATVAKKFLVRGYNIDPKAAELICKSGLFSDELVDKICRIANGGFIIEKSVVEEFLRNLSNLKPATLTPRPEERKVEEVKASCIALKVIKDITGKSSCQGNVEDFLMYFNSRLEKLSRIIRSRVNTTPIAHAGKVRGNVSVVGMVNEVYERGDKCYIRLEDTTGTITCVATGKNAEVARELLGDEVIGVTGLLKGSSLYANRIVFPDVPINGNGEKKRDFYIVFLSDTHFGSKEFLEKEWEMFVRWLKGEVGGKKSQNLAEKVKYIVIAGDIVDGIGVYPGQEDDLAISDIYGQYEFAASHLDEIPKEIKIIVSPGNHDAVRQAEPQPAFEGEIRSLFPKNVEHVGNPAYVDIEGVKVLIYHGRSIDDIISKIPRLSYDEPQKVMEELLKRRHLSPIYGGRTPLAPEREDYLVIEDVPDILHCGHIHTYGTGFYRGVFMVNSSTWQAQTEFQKKVNLNPMPGNVAVYRPGGEVIRLRFYGE", "soluble on expression in E. coli": "not soluble"}
{"sequence": "NQVLSGVSFQLMPGEVHALMGENGAGKSTLMNILTGLHKADKGQISINGNETYFSNPKEAEQHGIAFIHQELNIWPEMTVLENLFIGKEISSKLGVLQTRKMKALAKEQFDKLSVSLSLDQEAGECSVGQQQMIEIAKALMTNAEVIIMDEPTAALTEREISKLFEVITALKKNGVSIVYISHRMEEIFAICDRITIMRDGKTVDTTNISETDFDEVVKKMVGRELTERYPKRTPSLGDKVFEVKNASVKGSFEDVSFYVRSGEIVGVSGLMGAGRTEMMRALFGVDRLDTGEIWIAGKKTAIKNPQEAVKKGLGFITENRKDEGLLLDTSIRENIALPNLSSFSPKGLIDHKREAEFVDLLIKRLTIKTASPETHARHLSGGNQQKVVIAKWIGIGPKVLILDEPTRGVDVGAKREIYTLMNELTERGVAIIMVSSELPEILGMSDRIIVVHEGRISGEIHAREATQERIMTLATGGR", "soluble on expression in E. coli": "not soluble"}
{"sequence": "MGSDKIHHHHHHVEKLVILHTNDLHSHFENWPKIRRFMLGTRAAEQAEGASVLAFDDGDAMDRSAPLTEATQGQINVQLLNEIGYDAATIGNNEGVGNPHDVLEHLYDHANFPVALANLFEVDGSRPTWAKPFVRTQTRAGTRIAIVGFTAPFFLTYRPNGWQVKTVADVFPDILKQLSGTYDVLIVLSHLGIEADRHLAKQYPEIDVVIGGHTHHLLADGELHGTTLLTAAEKYGHYVGKVTLTLDDQHQIITRQAETFKTELMQAAAADPREIQGYESKGIALLKQHQVARLPKQLSIKYDGPSPLLDLGLEALADGAQVDAAILNAGLFLMPLGPGVVTQADLLTCLPHPMHLLKVTLSGKELWRLIMEMEKNRMFLRHFHMIGMSFRGKIFGDIGYRGISVNREKRVVLWHGKPLVPEQQYTFVTVDNFLFIPFFPTIEIMGSNELLFPKLLRNVVGEYLAQKYPL", "soluble on expression in E. coli": "not soluble"}
{"sequence": "MLIKQTDYFRIYRVINSLLISQNADPASASMYFSTFGAFILQQHYKVKAVPKGGLAAYNLGGTVLLFADHREDGYVTGAGENFHCWVEADGWAIDFMAPAFSEGTDALAVPAKMFQRPLSAMAASINDLGQSGDFFYRSEPEATARRFADWHKQAMIGDMASVAANWFRKSPKQMAASLSVTDRDGKARTVPLTGEMLTGAW", "soluble on expression in E. coli": "soluble"}
{"sequence": "MFDRYESGERAILVHVFFSQDRDTDDLLEFESLVSSAGIESLQVVTGSRKAPHPKYFVGEGKAEEIAQAVKETGAFVVLFNHALTPAQERNLERLCECRVIDRTGLILDIFAQRARTHEGKLQVELAQLRHLATRLVRGWTHLERQKGGIGLRGPGETQLETDRRLLRNRISQILLRLERVEKQREQGRRSRVRADVPTVSLVGYTNAGKSTLFNKITSAGVYVADQLFATLDPTLRRIQVDDVGDTVLADTVGFIRQLPHDLVAAFKATLQETRQASLLLHVVDAADPRLDENIDAVNDVLAEIEADEIPALLVMNKIDMLDDFVPRIDRNEENLPIRVWLSAQTGDGIPLLFQALTERLSGEIAQYTLHLPPQAGRLRSRFYQLQAIEKEWIEEDGQIGLVIRMPIADWRRLCKKEQELMDYIALEHHHHHH", "soluble on expression in E. coli": "not soluble"}
{"sequence": "MAHHHHHHMLMFCRVPEDTAVRISLDVKKHFVNTERTSITQAELENYIRCSMIAAGFAQEHAQLFSVVTQFHAERIPLVLFLAGPERCGKTTLAHLLAARINCSTVINAEVLRDISASIDDSLPLFAVPETSSPDSTPSMLRGAEVSAVVAAEVDKAVREGRAIIVEGENLSFAGFHRFLEPSFQLSTGAVILGLVMEICGGEAETDASHAYVQALPNLHPVYSTERLTVLAADIGDLAKGVRGIPTVYVARYTTVADNVCLSVFLHDIVVKRIIAELKRRGRVL", "soluble on expression in E. coli": "not soluble"}
{"sequence": "MALAPHAVHRLYEYRKSISTKPFGARGKKLIRCPLCLLGEQFCTCSLRKQLTTQASFLLIMYNDEVLKPTNSGRLIADLIPDTHAFLWSRTDPAPELLALLSSDHYQPFLVFPAQYADQGQTVLSQVPMATLAKGKRPLLIMLDGSWREAIKMFRKSPYLQGLPILSFDPDTLATYALRKGSHDFQLGTAEVASLALAAMGEEANGKALTAWFDLFVESSLLGRNRRCREDILPISDFTNAFEVAYTAATP", "soluble on expression in E. coli": "not soluble"}
{"sequence": "MGSDKIHHHHHHMRLAFFGDVHGNFEALKAVLEDMENKGVDEVFCLGDLVGYGPDPEAVVQTIMEKNIKTIMGNYDDAVGYSKESCGCSYAPGRETEVGDISLKWSIENTSEKTREFLRNLPKKLSFEVEGVRFLLVHGSPLNELLEYVKPNTPPDRLKKIVESVEENVVVNGHTHLPMVKWVMGKLVLNPGSAGRPKDGDPRASYMIVDVENGTVSFEIVRVRYDVKTTVEKIARNGLPVELATVLALGQTFDMGPGKVTFTLGR", "soluble on expression in E. coli": "not soluble"}
{"sequence": "DVGSAIDAAHQAFLRYQQCPLKTRSAIISALRETLAPELATLAEESATETGMGNKEDKYLKNKAALENTPGIEDLTTSALTGDGGMVLFEYSPFGVIGAVAPSTNPTETIINNSISMLAAGNSVYFSPHPGAKKVSLKLIARIEEIAYRCSGIRNLVVTVAEPTFEATQQMMSHPLIAVLAITGGPGIVAMGMKSGKKVIGAGAGNPPCIVDETADLVKAAEDIISG", "soluble on expression in E. coli": "not soluble"}
